According to patent US20040014939:

Tested on: T1, synthetic substrate Mcc-Pro-Leu-Gly-Pro-D-Lys(DNP)-OH
T1 sequence: PLGPK

luciferase as a fusion protein with 6×His tag
enzyme activity (fluorescence intensity, excitation 345±10 nm, emission 425±10 nm, 37° C. for 1 h): the enzyme activity was not detected in the water-soluble fraction in the case of a control in which luciferase gene was introduced into the similar expression vector
